Data as given in patent US20220168396A1, “MULTI-RECEPTOR AGONIST AND MEDICAL USE THEREOF” (published 2022).
Read-outs that look alike come from different tables or passages of the source. Numbered stars: 1 amine (or outer) side, 2 acyl side, 3 side chain; on linkers, the order of the positions; unused ones are H or OH. Square brackets hold non-standard residues; d marks the D form. Side chains are listed from the residue outwards. Ends that are not written are not given here. γGlu = O=C(O)[C@H](CCC(=O)[*:2])N[*:1]; AEEA = NCCOCCOCC(=O)O; Aib = CC(C)(N)C(=O)O

T1: human glucose-dependent insulinotropic peptide receptor (human, UniProt P48546)
T1 sequence: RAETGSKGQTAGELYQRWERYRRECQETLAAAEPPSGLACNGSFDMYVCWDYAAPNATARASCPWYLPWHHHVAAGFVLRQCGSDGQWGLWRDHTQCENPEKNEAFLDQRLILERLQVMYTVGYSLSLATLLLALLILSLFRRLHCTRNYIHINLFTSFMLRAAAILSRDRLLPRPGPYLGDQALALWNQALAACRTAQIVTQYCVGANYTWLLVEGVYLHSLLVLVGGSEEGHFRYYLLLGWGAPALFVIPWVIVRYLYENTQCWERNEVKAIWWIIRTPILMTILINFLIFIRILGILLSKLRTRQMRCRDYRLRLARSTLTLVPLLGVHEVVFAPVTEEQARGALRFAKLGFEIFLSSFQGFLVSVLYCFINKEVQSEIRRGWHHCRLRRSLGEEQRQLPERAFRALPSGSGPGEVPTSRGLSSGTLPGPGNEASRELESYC

B1: Compound No. 27 (peptide)
peptide: H-Y[Aib]EGTFTSDYSIYLEKEAAKEFVNWLLAGGPSSGAPPPS-NH2
modifications: not fully specified (residue 20); printed as H-YAibEGTFTSDYSIYLEKEAAK(OEG-OEG-yGlu-C18-OH)EFVNWLLAG / GPSSGAPPPS-NH2
B2: Compound No. 28 (peptide)
peptide: H-Y[Aib]EGTFTSDYSIYLEKIAAQEFVNWLLAGGPSSGAPPPSK-NH2
modifications: not fully specified (residue 40); printed as H-YAibEGTFTSDYSIYLEKIAAQEFVNWLLAGGPSSGAPPPSK / (OEG-OEG-yGlu-C18-OH)-NH2
B3: Compound No. 80 (peptide)
peptide: Y[Aib]EGTFTSDYSIYLEKIAAQEFVNWLIAGGPSSGAPPPS-NH2
modifications: N-terminus assumed
SMILES: CC[C@H](C)[C@H](NC(=O)[C@H](CCCCN)NC(=O)[C@H](CCC(=O)O)NC(=O)[C@H](CC(C)C)NC(=O)[C@H](Cc1ccc(O)cc1)NC(=O)[C@@H](NC(=O)[C@H](CO)NC(=O)[C@H](Cc1ccc(O)cc1)NC(=O)[C@H](CC(=O)O)NC(=O)[C@H](CO)NC(=O)[C@@H](NC(=O)[C@H](Cc1ccccc1)NC(=O)[C@@H](NC(=O)CNC(=O)[C@H](CCC(=O)O)NC(=O)C(C)(C)NC(=O)[C@@H](N)Cc1ccc(O)cc1)[C@@H](C)O)[C@@H](C)O)[C@@H](C)CC)C(=O)N[C@@H](C)C(=O)N[C@@H](C)C(=O)N[C@@H](CCC(N)=O)C(=O)N[C@@H](CCC(=O)O)C(=O)N[C@@H](Cc1ccccc1)C(=O)N[C@H](C(=O)N[C@@H](CC(N)=O)C(=O)N[C@@H](Cc1c[nH]c2ccccc12)C(=O)N[C@@H](CC(C)C)C(=O)N[C@H](C(=O)N[C@@H](C)C(=O)NCC(=O)NCC(=O)N1CCC[C@H]1C(=O)N[C@@H](CO)C(=O)N[C@@H](CO)C(=O)NCC(=O)N[C@@H](C)C(=O)N1CCC[C@H]1C(=O)N1CCC[C@H]1C(=O)N1CCC[C@H]1C(=O)N[C@@H](CO)C(N)=O)[C@@H](C)CC)C(C)C
B4: Compound No. 78 (peptide)
peptide: Y[Aib]EGTFTSDYSIYLEKIAAQEFVQWLLAGGPSSGAPPPS-NH2
modifications: N-terminus assumed
SMILES: CC[C@H](C)[C@H](NC(=O)[C@H](CCCCN)NC(=O)[C@H](CCC(=O)O)NC(=O)[C@H](CC(C)C)NC(=O)[C@H](Cc1ccc(O)cc1)NC(=O)[C@@H](NC(=O)[C@H](CO)NC(=O)[C@H](Cc1ccc(O)cc1)NC(=O)[C@H](CC(=O)O)NC(=O)[C@H](CO)NC(=O)[C@@H](NC(=O)[C@H](Cc1ccccc1)NC(=O)[C@@H](NC(=O)CNC(=O)[C@H](CCC(=O)O)NC(=O)C(C)(C)NC(=O)[C@@H](N)Cc1ccc(O)cc1)[C@@H](C)O)[C@@H](C)O)[C@@H](C)CC)C(=O)N[C@@H](C)C(=O)N[C@@H](C)C(=O)N[C@@H](CCC(N)=O)C(=O)N[C@@H](CCC(=O)O)C(=O)N[C@@H](Cc1ccccc1)C(=O)N[C@H](C(=O)N[C@@H](CCC(N)=O)C(=O)N[C@@H](Cc1c[nH]c2ccccc12)C(=O)N[C@@H](CC(C)C)C(=O)N[C@@H](CC(C)C)C(=O)N[C@@H](C)C(=O)NCC(=O)NCC(=O)N1CCC[C@H]1C(=O)N[C@@H](CO)C(=O)N[C@@H](CO)C(=O)NCC(=O)N[C@@H](C)C(=O)N1CCC[C@H]1C(=O)N1CCC[C@H]1C(=O)N1CCC[C@H]1C(=O)N[C@@H](CO)C(N)=O)C(C)C
B5: Compound No. 30 (peptide)
peptide: H-Y[Aib]EGTFTSDYSIYLEKIAAKEFVNWLLAGGPSSGAPPPS-NH2
modifications: not fully specified (residue 20); printed as H-YAibEGTFTSDYSIYLEKIAAK(OEG-OEG-yGlu-C18-OH)EFVNWLLAG / GPSSGAPPPS-NH2
B6: Compound No. 29 (peptide)
peptide: H-Y[Aib]EGTFTSDYSIYLEKIAAQEFVNWLLAGKPSSGAPPPS-NH2
modifications: not fully specified (residue 30); printed as H-YAibEGTFTSDYSIYLEKIAAQEFVNWLLAGK(OEG-OEG-yGlu-C18-OH) / PSSGAPPPS-NH2
B7: Compound No. 25 (peptide)
peptide: H-Y[Aib]EGTFTSDYSIYLEKEAAKEFVNWLLAGGPSSGAPPPSK-NH2
modifications: not fully specified (residue 40); printed as H-YAibEGTFTSDYSIYLEKEAAKEFVNWLLAGGPSSGAPPPSK / (OEG-OEG-yGlu-C18-OH)-NH2

What was measured:
Test in all cases: cell-based or functional assay
[1] = molecular target: T2, human glucagon-like peptide-1 receptor (human, UniProt P43220)
[2] = molecular target: T1, human glucose-dependent insulinotropic …
[3] = molecular target: T2, human glucagon-like peptide-1 receptor; remark: listed apart in the source
[4] = molecular target: T1, human glucose-dependent insulinotropic …; remark: listed apart in the source

Binder | Activity for human GLP-1R (EC50 nM), cAMP HTRF [1] [nM] | Activity for human GIPR (EC50 nM), cAMP HTRF [2] [nM] | Activity for human GLP-1R (EC50 nM), cAMP HTRF [3] [nM] | Activity for human GIPR (EC50 nM), cAMP HTRF [4] [nM]
Y[Aib]EGTFTSDYSIYLEKIAAQEFVNWLLAGGPSSGAPPPSK([AEEA-AEEA-γGlu-C20‑OH])-NH2 [Compound No. 74] | 0.068 | 0.046 | – | –
B1 | 0.12 | 0.11 | – | –
Y[Aib]EGTFTSDYSIYLDKIAAK([AEEA-AEEA-γGlu-C18‑OH])EFVNWLLAGGPSSGAPPPS-NH2 [Compound No. 60] | 0.2 | 0.02 | – | –
B2 | 0.074 | 0.02 | – | –
Y[Aib]EGTFTSDYSIYLDKIAAQEFVNWLLAGGPSSGAPPPSK([AEEA-AEEA-γGlu-C18‑OH])-NH2 [Compound No. 62] | 0.32 | 0.045 | – | –
B3 | – | – | 0.008 | 0.008
B4 | – | – | 0.008 | 0.012
B5 | 0.058 | 0.021 | – | –
B6 | 0.24 | 0.015 | – | –
Y[Aib]EGTFTSDYSIYLEKIAAK([AEEA-AEEA-γGlu-C20‑OH])EFVNWLLAGGPSSGAPPPS-NH2 [Compound No. 75] | 0.2 | 0.16 | – | –
Y[Aib]EGTFTSDYSIYLEKIAAQEFVNWLIAGGPSSGAPPPSK([AEEA-AEEA-γGlu-C20‑OH])-NH2 [Compound No. 83] | 0.028 | 0.032 | – | –
B7 | 0.031 | 0.059 | – | –
